Measurements as given in patent publication US11028377B2, “Phytase variants YkAPPA having improved pepsin resistance and increased catalytic efficiency” (priority 2017, dated 2021).

Assays:
[1] = tested on: Y. kristensenii phytase YkAPPA variant YkAPPA-E230G, SEQ ID NO.5; assay: Kinetic parameters of phytase variant with sodium phytate (double reciprocal method); assay type: biochemical; conditions: E230G vs wild phytase
Protocol: (§1) According to embodiment of the present invention, the phytase variant YkAPPA-E230G with amino acid sequence as set forth in SEQ ID NO.5 is obtained by mutation at the 230th site of glutamic acid into glycine for phytase with amino acid as set forth in SEQ ID NO.1.
(§2) Gene encoding phytase YkAPPA having the nucleotide sequence as set in SEQ ID NO. 2 from Y. kristensenii was performed with site-directed mutagenesis by Overlap PCR to obtain genes encodng the phytase variants YeAPPA-L162G, YeAPPA-L162A, YeAPPA-E230G, YkAPPA-E230A, YkAPPA-E230S, YkAPPA-E230T, YkAPPA-E230D, YkAPPA-E230P, and YkAPPA-E230R, respectively.
(§3) The modified genes encoding the phytase variants were inserted into expression vector pET-22b (+), and transformed into E coli. Strain BL21 (DE3), which were induced by IPTG in 1 mM, cultivated for 5 h at 24° C. to express the phytase, followed by being purified by columns Ni-NTA and DEAE to obtain the mutant protein with the same molecular weight as that of the wild.
(§4) The effect of pepsin on the activity of the purified mutant phytase was determined by detecting the remaining activity after being treated in pH 2 for 2 hours with the different concentrations of pepsin in a mass ratio to phytase ranging from 1/1000 to 1/1. The activity of phytase was detected by ferric molybdenum sulfate blue method by adding 50 ul of phytase solution to 950 ul of sodium phytate substrate in 1.5 mmol/L to react for 30 min at 37° C., followed by adding 1 mL of 10% (m/v) TCA to stop the reaction, and 2 mL of developing color reagent. After developing, OD is measured at 700 nm to calculate the phytase activity.
(§5) The activity of phytase was measured with sodium phytate as substrate in different concentrations of 0.0625 mmol/L, 0.1 mmol/L, 0.125 mmol/L, 0.2 mmol/L, 0.25 mmol/L, 0.5 mmol/L, 1.0 mmol/L and 1.5 mmol/L at the optimal temperature and pH, followed by calculating the values of km and Vmax by double reciprocal method for Michaelis equation, and Kcat according to the theoretical molecular weight. […] And, the catalytic properties including reaction rate, turnover rate and catalytic efficiency of the other phytase variants were similar to those of the wild phytase.

[2] = tested on: Y. kristensenii phytase YkAPPA variant YkAPPA-E230A, SEQ ID NO.6; assay: as above; assay type: biochemical; conditions: E230A vs wild phytase
Protocol: (§6) According to embodiment of the present invention, the phytase variant YkAPPA-E230A with amino acid sequence as set forth in SEQ ID NO.6 is obtained by mutation at the 230th site of glutamic acid into alanine for phytase with amino acid as set forth in SEQ ID NO.1.
as §2, §3, §4, §5

[3] = tested on: Y. kristensenii phytase YkAPPA variant YkAPPA-L162G, SEQ ID NO.3; assay: as above; assay type: biochemical; conditions: L162G vs wild phytase
Protocol: (§7) According to embodiment of the present invention, the phytase variant YkAPPA-L162G with amino acid sequence as set forth in SEQ ID NO.3 is obtained by mutation at the 162th site of Leucine into glycine for phytase with amino acid as set forth in SEQ ID NO.1.
as §2, §3, §4, §5

[4] = tested on: O=P(O)(O)O[C@H]1[C@H](OP(=O)(O)O)[C@@H](OP(=O)(O)O)[C@H](OP(=O)(O)O)[C@@H](OP(=O)(O)O)[C@H]1OP(=O)(O)O; assay: as above; assay type: biochemical, Y. kristensenii; conditions: other: E230A, optimal pH 4.5 and temperature 55° C.
Protocol: as §6, §2, §3, §4, §5

[5] = tested on: O=P(O)(O)O[C@H]1[C@H](OP(=O)(O)O)[C@@H](OP(=O)(O)O)[C@H](OP(=O)(O)O)[C@@H](OP(=O)(O)O)[C@H]1OP(=O)(O)O; assay: as above; assay type: biochemical, Y. kristensenii; conditions: other: E230D, optimal pH 4.5 and temperature 55° C.
Protocol: According to embodiment of the present invention, the phytase variant YkAPPA-E230D with amino acid sequence as set forth in SEQ ID NO.9 is obtained by mutation at the 230th site of glutamic acid into aspartic acid for phytase with amino acid as set forth in SEQ ID NO.1.
as §2, §3, §4, §5

[6] = tested on: O=P(O)(O)O[C@H]1[C@H](OP(=O)(O)O)[C@@H](OP(=O)(O)O)[C@H](OP(=O)(O)O)[C@@H](OP(=O)(O)O)[C@H]1OP(=O)(O)O; assay: as above; assay type: biochemical, Y. kristensenii; conditions: other: E230G, optimal pH 4.5 and temperature 55° C.
Protocol: as §1, §2, §3, §4, §5

[7] = tested on: O=P(O)(O)O[C@H]1[C@H](OP(=O)(O)O)[C@@H](OP(=O)(O)O)[C@H](OP(=O)(O)O)[C@@H](OP(=O)(O)O)[C@H]1OP(=O)(O)O; assay: as above; assay type: biochemical, Y. kristensenii; conditions: other: E230P, optimal pH 4.5 and temperature 60° C.
Protocol: According to embodiment of the present invention, the phytase variant YkAPPA-E230P with amino acid sequence as set forth in SEQ ID NO.10 is obtained by mutation at the 230th site of glutamic acid into proline for phytase with amino acid as set forth in SEQ ID NO.1.
as §2, §3, §4, §5

[8] = tested on: O=P(O)(O)O[C@H]1[C@H](OP(=O)(O)O)[C@@H](OP(=O)(O)O)[C@H](OP(=O)(O)O)[C@@H](OP(=O)(O)O)[C@H]1OP(=O)(O)O; assay: as above; assay type: biochemical, Y. kristensenii; conditions: other: E230R, optimal pH 4.0 and temperature 55° C.
Protocol: According to embodiment of the present invention, the phytase variant YkAPPA-E230R with amino acid sequence as set forth in SEQ ID NO.11 is obtained by mutation at the 230th site of […] for phytase with amino acid as set forth in SEQ ID.
as §2, §3, §4, §5

[9] = tested on: O=P(O)(O)O[C@H]1[C@H](OP(=O)(O)O)[C@@H](OP(=O)(O)O)[C@H](OP(=O)(O)O)[C@@H](OP(=O)(O)O)[C@H]1OP(=O)(O)O; assay: as above; assay type: biochemical, Y. kristensenii; conditions: other: E230S, optimal pH 4.5 and temperature 55° C.
Protocol: According to embodiment of the present invention, the phytase variant YkAPPA-E230S with amino acid sequence as set forth in SEQ ID NO.7 is obtained by mutation at the 230th site of glutamic acid into serine for phytase with amino acid as set forth in SEQ ID NO.1.
as §2, §3, §4, §5

[10] = tested on: O=P(O)(O)O[C@H]1[C@H](OP(=O)(O)O)[C@@H](OP(=O)(O)O)[C@H](OP(=O)(O)O)[C@@H](OP(=O)(O)O)[C@H]1OP(=O)(O)O; assay: as above; assay type: biochemical, Y. kristensenii; conditions: other: E230T, optimal pH 4.5 and temperature 55° C.
Protocol: According to embodiment of the present invention, the phytase variant YkAPPA-E230T with amino acid sequence as set forth in SEQ ID NO.8 is obtained by mutation at the 230th site of glutamic acid into threonine for phytase with amino acid as set forth in SEQ ID NO.1.
as §2, §3, §4, §5

[11] = tested on: O=P(O)(O)O[C@H]1[C@H](OP(=O)(O)O)[C@@H](OP(=O)(O)O)[C@H](OP(=O)(O)O)[C@@H](OP(=O)(O)O)[C@H]1OP(=O)(O)O; assay: as above; assay type: biochemical, Y. kristensenii; conditions: other: L162G, optimal pH 4.5 and temperature 55° C.
Protocol: as §7, §2, §3, §4, §5

[12] = tested on: O=P(O)(O)O[C@H]1[C@H](OP(=O)(O)O)[C@@H](OP(=O)(O)O)[C@H](OP(=O)(O)O)[C@@H](OP(=O)(O)O)[C@H]1OP(=O)(O)O; assay: Kinetic parameters of phytase with sodium phytate (double reciprocal method); assay type: biochemical, Y. kristensenii; conditions: other: wild type, optimal pH 4.5 and temperature 55° C.
Protocol: as §2, §3, §4, §5

Question: With `O=P(O)(O)O[C@H]1[C@H](OP(=O)(O)O)[C@@H](OP(=O)(O)O)[C@H](OP(=O)(O)O)[C@@H](OP(=O)(O)O)[C@H]1OP(=O)(O)O` [sodium phytate] as the molecule, how does the “Reaction rate Vmax relative to the wild phytase” value [1] read?
Answer: 1.9 times

Question: And the “catalytic efficiency Kcat/km relative to the wild phytase” value [1]?
Answer: 2.1 times

Question: And the “conversion rate Kcat relative to the wild phytase” value [1]?
Answer: 1.9 times

Question: What about the “Reaction rate Vmax relative to the wild phytase” value [2] of the same molecule?
Answer: 1.3 times

Question: And the “catalytic efficiency relative to the wild phytase” value [2]?
Answer: 2.1 times

Question: And the “conversion rate Kcat relative to the wild phytase” value [2]?
Answer: 1.3 times

Question: And the “Reaction rate Vmax relative to the wild phytase” value [3]?
Answer: 1.6 to 1.8 times

Question: What about the “catalytic efficiency relative to the wild phytase” value [3] of the same molecule?
Answer: 2.1 times

Question: What about the “conversion rate Kcat relative to the wild phytase” value [3] of the same molecule?
Answer: 1.6 to 1.8 times

Question: What does the source list for “Y. kristensenii phytase YkAPPA variant YkAPPA-E230A, SEQ ID NO.6 (Yersinia kristensenii; E230A)”?
Answer: Km [4]: 90 µM; Vmax [4]: 4530 µmol/min/mg; kcat [4]: 3470 s⁻¹; kcat/Km [4]: 3.77e+07 M⁻¹ s⁻¹

Question: How did the Km [5] turn out when “Y. kristensenii phytase YkAPPA variant YkAPPA-E230D, SEQ ID NO.9 (Yersinia kristensenii; E230D)” was run?
Answer: 90 µM

Question: And the Vmax [5]?
Answer: 3590 µmol/min/mg

Question: What about the kcat [5] of the same molecule?
Answer: 2740 s⁻¹

Question: And the kcat/Km [5]?
Answer: 2.91e+07 M⁻¹ s⁻¹

Question: “Y. kristensenii phytase YkAPPA variant YkAPPA-E230G, SEQ ID NO.5 (Yersinia kristensenii; E230G)” was tested. Which Km [6] did it give?
Answer: 100 µM

Question: What about the Vmax [6] of the same molecule?
Answer: 7100 µmol/min/mg

Question: What about the kcat [6] of the same molecule?
Answer: 5430 s⁻¹

Question: What about the kcat/Km [6] of the same molecule?
Answer: 6.17e+07 M⁻¹ s⁻¹

Question: For “Y. kristensenii phytase YkAPPA variant YkAPPA-E230P, SEQ ID NO.10 (Yersinia kristensenii; E230P)”, which Km [7] is on record?
Answer: 80 µM

Question: And the Vmax [7]?
Answer: 3180 µmol/min/mg

Question: And the kcat [7]?
Answer: 2430 s⁻¹

Question: What about the kcat/Km [7] of the same molecule?
Answer: 2.98e+07 M⁻¹ s⁻¹

Question: “Y. kristensenii phytase YkAPPA variant YkAPPA-E230R, SEQ ID NO.11 (Yersinia kristensenii; E230R)” was tested. Which Km [8] did it give?
Answer: 110 µM

Question: And the Vmax [8]?
Answer: 4330 µmol/min/mg

Question: What about the kcat [8] of the same molecule?
Answer: 3310 s⁻¹

Question: What about the kcat/Km [8] of the same molecule?
Answer: 2.99e+07 M⁻¹ s⁻¹

Question: Which results are given for “Y. kristensenii phytase YkAPPA variant YkAPPA-E230S, SEQ ID NO.7 (Yersinia kristensenii; E230S)”?
Answer: Km [9]: 90 µM; Vmax [9]: 3800 µmol/min/mg; kcat [9]: 2900 s⁻¹; kcat/Km [9]: 2.93e+07 M⁻¹ s⁻¹

Question: Which results are given for “Y. kristensenii phytase YkAPPA variant YkAPPA-E230T, SEQ ID NO.8 (Yersinia kristensenii; E230T)”?
Answer: Km [10]: 80 µM; Vmax [10]: 3250 µmol/min/mg; kcat [10]: 2480 s⁻¹; kcat/Km [10]: 2.98e+07 M⁻¹ s⁻¹

Question: How did the Km [11] turn out when “Y. kristensenii phytase YkAPPA variant YkAPPA-L162G, SEQ ID NO.3 (Yersinia kristensenii; L162G)” was run?
Answer: 90 µM

Question: What about the Vmax [11] of the same molecule?
Answer: 6320 µmol/min/mg

Question: What about the kcat [11] of the same molecule?
Answer: 4840 s⁻¹

Question: What about the kcat/Km [11] of the same molecule?
Answer: 4.61e+07 M⁻¹ s⁻¹

Question: Which results are given for “Yersinia (Y.) kristensenii phytase YkAPPA, wild type, SEQ ID NO.1 (Yersinia kristensenii)”?
Answer: Km [12]: 90 µM; Vmax [12]: 3550 µmol/min/mg; kcat [12]: 2720 s⁻¹; kcat/Km [12]: 2.94e+07 M⁻¹ s⁻¹
